Patent US20240052042A1 (Novartis, published 2024)

Columns and labels:
[1] = biological target: T1, human NPR1 on CHO-K1 cells in the presence of ANP (human, UniProt P01160 124-151); assay: flow cytometry (FL2-H) on hNPR1 CHO-K1 cells with saturating ANP, IgG titrated; control parental CHO-K1 [panel WW01]
T1 construct: also called hNPR1 CHO K1 + 100 nM ANP
T1 sequence: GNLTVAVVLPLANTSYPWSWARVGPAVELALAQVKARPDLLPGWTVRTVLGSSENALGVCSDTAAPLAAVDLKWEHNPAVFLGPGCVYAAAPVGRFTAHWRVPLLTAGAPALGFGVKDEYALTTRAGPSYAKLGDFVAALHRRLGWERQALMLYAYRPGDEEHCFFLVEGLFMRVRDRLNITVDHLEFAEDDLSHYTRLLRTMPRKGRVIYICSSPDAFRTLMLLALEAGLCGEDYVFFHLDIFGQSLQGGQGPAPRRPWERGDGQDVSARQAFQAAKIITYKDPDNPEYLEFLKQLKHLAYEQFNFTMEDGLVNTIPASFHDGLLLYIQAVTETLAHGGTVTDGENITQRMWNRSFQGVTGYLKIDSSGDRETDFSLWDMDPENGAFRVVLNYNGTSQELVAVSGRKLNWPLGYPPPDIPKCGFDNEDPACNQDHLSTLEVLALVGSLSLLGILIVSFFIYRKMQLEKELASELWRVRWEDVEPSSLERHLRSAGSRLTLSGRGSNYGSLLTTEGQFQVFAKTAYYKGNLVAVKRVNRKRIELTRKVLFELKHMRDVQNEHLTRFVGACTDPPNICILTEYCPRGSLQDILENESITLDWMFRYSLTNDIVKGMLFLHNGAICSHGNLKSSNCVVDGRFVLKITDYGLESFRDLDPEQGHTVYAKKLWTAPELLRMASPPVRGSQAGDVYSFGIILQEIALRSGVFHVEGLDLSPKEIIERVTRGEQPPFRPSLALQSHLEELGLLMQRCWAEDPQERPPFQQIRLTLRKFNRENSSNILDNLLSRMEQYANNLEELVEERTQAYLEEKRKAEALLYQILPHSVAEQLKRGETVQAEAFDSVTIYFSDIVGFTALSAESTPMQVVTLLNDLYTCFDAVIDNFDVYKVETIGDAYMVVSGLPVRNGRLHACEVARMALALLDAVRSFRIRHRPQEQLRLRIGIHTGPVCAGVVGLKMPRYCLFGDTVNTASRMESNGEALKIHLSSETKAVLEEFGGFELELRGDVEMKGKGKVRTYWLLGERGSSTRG
T1 sequence (peptide): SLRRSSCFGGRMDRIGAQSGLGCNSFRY

[2] = biological target: T2, human NPR1 on CHO-K1 cells (human, UniProt P16066 33-1061); assay: flow cytometry, hNPR1 CHO-K1 cells, IgG
T2 construct: also called hNPR1 CHO K1; human NPR1 expressing CHO-K1 cells
T2 sequence: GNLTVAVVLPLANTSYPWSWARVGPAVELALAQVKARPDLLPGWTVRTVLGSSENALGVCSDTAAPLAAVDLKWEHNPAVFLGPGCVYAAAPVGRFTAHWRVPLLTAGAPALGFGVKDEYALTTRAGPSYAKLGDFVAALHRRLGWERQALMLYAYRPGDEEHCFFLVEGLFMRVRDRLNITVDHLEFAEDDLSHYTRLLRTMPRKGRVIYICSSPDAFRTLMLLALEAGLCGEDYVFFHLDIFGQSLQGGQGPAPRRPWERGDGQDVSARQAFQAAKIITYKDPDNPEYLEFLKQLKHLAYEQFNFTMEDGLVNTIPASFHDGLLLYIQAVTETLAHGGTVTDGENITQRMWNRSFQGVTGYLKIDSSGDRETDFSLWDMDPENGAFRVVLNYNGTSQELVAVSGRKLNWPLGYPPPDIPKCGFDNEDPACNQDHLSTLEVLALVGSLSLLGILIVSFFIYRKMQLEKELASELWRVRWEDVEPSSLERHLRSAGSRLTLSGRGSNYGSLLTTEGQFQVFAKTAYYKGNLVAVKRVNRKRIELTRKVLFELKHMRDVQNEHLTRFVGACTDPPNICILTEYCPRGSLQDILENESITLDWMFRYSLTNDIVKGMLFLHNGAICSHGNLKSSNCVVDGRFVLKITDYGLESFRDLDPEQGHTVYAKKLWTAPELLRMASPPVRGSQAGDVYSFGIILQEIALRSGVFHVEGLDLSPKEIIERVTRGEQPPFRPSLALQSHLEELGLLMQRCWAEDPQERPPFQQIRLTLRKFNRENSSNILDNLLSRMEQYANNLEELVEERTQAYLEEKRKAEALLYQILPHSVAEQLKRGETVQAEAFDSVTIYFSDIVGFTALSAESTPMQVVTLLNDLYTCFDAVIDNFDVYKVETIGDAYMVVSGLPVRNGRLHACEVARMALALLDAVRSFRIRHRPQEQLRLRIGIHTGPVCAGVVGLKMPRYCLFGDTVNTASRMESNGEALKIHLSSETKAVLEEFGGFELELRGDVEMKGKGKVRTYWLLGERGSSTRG

[3] = biological target: T1, human NPR1 on CHO-K1 cells in the …; assay: flow cytometry, hNPR1 CHO-K1 cells, IgG
hNPR1-ANP complex [4] = biological target: T3, hNPR1-ANP complex (human, UniProt P01160 124-151, limits assumed); assay: ELISA, IgG
T3 construct: hNPR1 antigen in the presence of ANP; also called hNPR1 + 100 nM ANP
T3 sequence: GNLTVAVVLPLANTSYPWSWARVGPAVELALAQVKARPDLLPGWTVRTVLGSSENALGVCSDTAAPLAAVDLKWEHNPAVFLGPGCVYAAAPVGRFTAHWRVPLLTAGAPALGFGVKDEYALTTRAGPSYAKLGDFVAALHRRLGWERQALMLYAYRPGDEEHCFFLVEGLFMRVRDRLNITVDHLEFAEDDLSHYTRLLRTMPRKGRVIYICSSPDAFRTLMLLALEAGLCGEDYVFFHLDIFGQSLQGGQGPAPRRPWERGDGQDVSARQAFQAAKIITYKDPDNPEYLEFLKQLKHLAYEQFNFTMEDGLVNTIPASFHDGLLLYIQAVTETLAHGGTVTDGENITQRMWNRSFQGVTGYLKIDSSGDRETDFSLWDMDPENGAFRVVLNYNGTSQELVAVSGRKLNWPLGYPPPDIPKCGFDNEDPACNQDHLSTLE
T3 sequence (peptide): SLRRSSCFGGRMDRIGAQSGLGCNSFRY

[5] = biological target: T2, human NPR1 on CHO-K1 cells; assay: cell-based or functional assay
rNPR1-ANP complex [6] = biological target: T4, rNPR1-ANP complex (rat, UniProt P01160 124-151 (human entry), limits assumed); assay: FabCys affinity (Octet per Table 18 comment)
T4 construct: rNPR1 antigen in the presence of ANP; also called rNPR1 + 100 nM ANP
T4 sequence: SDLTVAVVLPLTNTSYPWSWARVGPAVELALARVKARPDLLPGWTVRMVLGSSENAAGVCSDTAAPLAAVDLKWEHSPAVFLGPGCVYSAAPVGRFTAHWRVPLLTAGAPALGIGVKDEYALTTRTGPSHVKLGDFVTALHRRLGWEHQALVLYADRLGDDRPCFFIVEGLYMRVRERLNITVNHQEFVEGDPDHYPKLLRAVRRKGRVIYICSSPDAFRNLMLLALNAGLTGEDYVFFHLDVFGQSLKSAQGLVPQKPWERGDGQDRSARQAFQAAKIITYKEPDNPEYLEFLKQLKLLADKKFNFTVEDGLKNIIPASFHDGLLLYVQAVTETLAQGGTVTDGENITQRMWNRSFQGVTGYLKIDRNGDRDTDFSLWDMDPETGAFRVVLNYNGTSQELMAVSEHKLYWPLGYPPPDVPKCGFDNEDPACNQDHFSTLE
T4 sequence (peptide): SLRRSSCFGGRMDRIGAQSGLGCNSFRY

hNPR1-ANP complex [7] = biological target: T3, hNPR1-ANP complex; assay: FabCys affinity (Octet per Table 18 comment)
rNPR1-ANP complex [8] = biological target: T4, rNPR1-ANP complex; assay: Octet, FabCys; comment: Heterogenous binding
hNPR1-ANP complex [9] = biological target: T3, hNPR1-ANP complex; assay: Octet, FabCys; comment: Heterogenous binding
rNPR1-ANP complex [10] = biological target: T4, rNPR1-ANP complex; assay: FabCys, parental value by Octet (table comment), as in Table 14
hNPR1-ANP complex [11] = biological target: T3, hNPR1-ANP complex; assay: as above

Row | Binder | EC50 (read off the curve) [1] [nM] | flow cytometry S/BG at 2 µM IgG [2] [S/BG] | flow cytometry S/BG at 2 µM IgG [3] [S/BG] | EC50 (hNPR1-ANP complex [4]) [nM] | cGMP conc [nM] at 1 µM FabCys, +0.075 nM ANP [5] [nM] | cGMP conc [nM] at 1 µM FabCys, without ANP [5] [nM] | Kd (rNPR1-ANP complex [6]) [nM] | Kd (hNPR1-ANP complex [7]) [nM] | Kd (rNPR1-ANP complex [8]) [nM] | Kd (hNPR1-ANP complex [9]) [nM] | Kd (rNPR1-ANP complex [10]) [nM] | Kd (hNPR1-ANP complex [11]) [nM]
1 | WW01 (IgG format) (antibody, V domains shown, also called WW01_LALA) VH: QVQLLESGGGLVQPGGSLRLSCAASGFTFNTHYIHWVRQAPGKGLEWVSSISGSGSNTYYADSVKGRFTISRDNSKNTLYLQMNSLRAEDTAVYYCARERGYVYYHMFDPWGQGTLVTVSS VL: DIVLTQSPATLSLSPGERATLSCRASQSITRNYLAWYQQKPGQAPRLLIYGASSRATGIPARFSGSGSGTDFTLTISSLEPEDFAVYYCQQHSMYPRTFGQGTKVEIKR | ~3 | 19.9 | 222 | 1 | – | – | – | – | – | – | – | –
2 | YY01 (FabCys format) (Fab, V domains shown, Monovalent FabCys) VH: EVQLVESGGGLVQPGGSLRLSCAASGFTFSSYWISWVRQAPGKGLEWVANIKQSGSETYYVESVKGRFTISRDNAKNSLYLQMNSLRAEDTAVYYCARSLRRRSTEHAGFDVWGQGTLVTVSS VL: DIQMTQSPSSLSASVGDRVTITCRASQGISNYLAWYQQKPGKVPKLLIYAASTLQSGVPSRFSGSGSGTDFTLTISSLQPEDVATYYCQQADKFPYTFGQGTKVEIK | – | – | – | – | 46 | 15 | 14 | 16 | 8.8 | 26 | 14 | 16
